According to patent US20240400717A1, “Antibody Binding to CHI3L1 for Treating Cancer” (National Cheng Kung University, priority 2021, published 2024):

How the values were obtained:
PANC1 and H460 cells = experiment: CCK-8 cell viability assay with rCHI3L1; type: cell-based, human; conditions: PANC1 and H460, rCHI3L1 with mAbs at two doses
Description: PI3K/AKT/mTOR signaling pathway is important in regulating cell proliferation, survival and migration (Xu et al. 2020). Therefore, we investigated the effect of four selected mAbs on cancer cell behaviors. Human pancreatic (PANC1) and large cell cancer of the lung (H460) cells were treated with rCHI3L1 only or together with mAbs at two doses, and then subjected to cell counting kit 8 (CCK-8) cell viability assay. […] P values were determined by one-way ANOVA. * P<0.05, ** P<0.01, *** P<0.001, **** P<0.0001.

CHI3L2 = molecular target: T1, CHI3L2 (Homo sapiens, UniProt Q15782); experiment: ELISA binding specificity, CHI3L2; conditions: mAbs 1 μg/ml; coated protein 2.5 μg/ml to 0 μg/ml
T1 sequence (Q15782 27-390): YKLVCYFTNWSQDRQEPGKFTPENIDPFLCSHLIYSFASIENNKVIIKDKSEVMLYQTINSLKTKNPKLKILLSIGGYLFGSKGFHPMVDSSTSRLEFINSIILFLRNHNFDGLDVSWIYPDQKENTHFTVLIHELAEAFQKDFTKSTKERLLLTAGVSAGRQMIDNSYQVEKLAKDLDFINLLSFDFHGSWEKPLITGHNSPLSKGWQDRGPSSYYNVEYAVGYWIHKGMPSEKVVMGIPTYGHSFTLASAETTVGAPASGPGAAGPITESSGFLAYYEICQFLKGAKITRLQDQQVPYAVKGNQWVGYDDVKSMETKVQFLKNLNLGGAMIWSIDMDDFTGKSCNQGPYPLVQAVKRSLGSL
Description: (§1) Four selected clones of mAbs including R4-4, R4-54, 293R3-2, and 293R3-4 were further tested for blocking effect on human colorectal (HCT116, SW480, and SW620) and pancreatic cancer cell lines (PANC1 and MiaPaCa-2). […] P values were determined by one-way ANOVA. * P<0.05, ** P<0.01, *** P<0.001, **** P<0.0001. For binding specificity examination, we further coated different concentration of recombinant CHI3L1 protein, and two other major proteins in chitinase family including human chitotriosidase-1 (CHIT1) and CHI3L2 from 2.5 μg/ml to 0 μg/ml, on 96-well plate.

[1] = test system: MiaPaCa-2, SW480 and A549 cells; experiment: Wound healing assay with rCHI3L1; type: cell-based, human; conditions: MiaPaCa-2, SW480, A549; 16 hours
Description: Since AKT regulates cell migration, we further performed wound healing assay to examine the anti-migratory effect of mAbs on pancreatic (MiaPaCa-2), colorectal (SW480), and lung (A549) cells. We observed that after 16 hours, the wound closure area was increased compared to that in control groups upon rCHI3L1 treatment. […] Taken together, our fully human monoclonal CHI3L1 neutralizing antibody clones R4-4, R4-54, 293R3-2, and 293R3-4 blocked the CHI3L1 induced signaling and cell behaviors of tumor cells. The data was presented as mean±S.D. (n=3 per group). P values were determined by one-way ANOVA. * P<0.05, ** P<0.01, *** P<0.001, **** P<0.0001.

[2] = molecular target: CHI3L1-receptor(s) interaction on HCT116, SW480, SW620, PANC1 and MiaPaCa-2 (Homo sapiens, UniProt P36222); experiment: Flow cytometry blockage of rCHI3L1-receptor(s) interaction, colorectal and pancreatic cancer cell lines; type: cell-based; conditions: HCT116, SW480, SW620, PANC1, MiaPaCa-2, flow cytometry
Chain of CHI3L1-receptor(s) interaction on HCT116, SW480, SW620, PANC1 and MiaPaCa-2 (P36222 22-383): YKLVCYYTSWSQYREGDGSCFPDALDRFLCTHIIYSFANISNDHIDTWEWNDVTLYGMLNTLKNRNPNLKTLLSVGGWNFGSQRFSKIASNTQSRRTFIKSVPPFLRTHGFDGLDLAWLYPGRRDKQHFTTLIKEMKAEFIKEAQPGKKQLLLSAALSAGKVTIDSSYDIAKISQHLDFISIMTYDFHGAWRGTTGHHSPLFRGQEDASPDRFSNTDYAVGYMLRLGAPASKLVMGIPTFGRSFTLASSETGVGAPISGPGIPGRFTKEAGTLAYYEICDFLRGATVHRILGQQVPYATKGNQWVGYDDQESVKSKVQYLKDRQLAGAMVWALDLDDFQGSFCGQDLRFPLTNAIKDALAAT
Description: CHI3L1 have been reported to interact with several receptors on cancer cells, and trigger downstream signaling for cancer cell growth, proliferation and anti-apoptosis (Kamba et al. 2013; Lee et al. 2016). […] His-tagged rCHI3L1 was added for CHI3L1-receptor(s) interaction. Anti-His antibody AHAb with fluorescent F recognized CHI3L1-receptor(s) R complex for detection (left, FIG. 4A). Once fully human mAbs (nCHI3L1 Ab) blocked the CHI3L1-receptor(s) interaction, the fluorescent F signals were decreased (right, FIG. 4A) and cell signaling CS was blockade.
as §1

hCHI3L1/flag-His = molecular target: T2, hCHI3L1/flag-His (Homo sapiens, UniProt P36222); experiment: In tandem epitope binning on Octet Red96; type: binding
T2 construct: human CHI3L1 extracellular domain fused with flag and His tag
T2 sequence (P36222 22-383): as above
Description: In order to know the epitopic coverage for those four antibodies to increase the success of therapeutic CHI3L1 antibody development, epitope binning is used to characterize the binding site of mAbs to the corresponding antigen and summarized in the Table 4. In epitope binning, mAbs specific to the same target protein are tested pairwise against all mAbs in a set to assess whether they block one another's binding to a specific site of the antigen or not. The mAbs that block binding to the same epitope are “binned” together. mAbs within the same bin often function similarly, so epitope bins can narrow down the choices to fewer candidates for investigators to choose from. The in tandem epitope binning assay conducted on Octet Red96 comprised a five-step binding cycle; 1) a buffer baseline was established for 30 sec, 2) 100 nM hCHI3L1/flag-His was captured for 5 min, 3) 100 nM mAb array was loaded to saturate the captured antigen for 10 min, 4) 100 nM of the test mAb was bound for 5 min, and 5) the capture surfaces were regenerated for 30 sec. Anti-His surfaces were regenerated with 10 mM glycine pH 1.7. Raw data was processed using ForteBio's Data Analysis HT Software 11.1 and the antibody pairs were assessed for competitive binding. Additional binding by the second antibody indicates an unoccupied epitope (non-competitor, marked as *c in Table 4), while no binding indicates epitope blocking (competitor, marked as *b in Table 4) and self-competing antibodies were marked as *a in Table 4. Among four anti-CHI3L1 mAbs, there are two epitope clusters.

PANC1 cells = experiment: Immunoblot of rCHI3L1-induced AKT and ERK phosphorylation, PANC1; type: cell-based, human; conditions: PANC1, rCHI3L1 100 ng/ml, 20 minutes, different dose of mAbs
Description: The involvement of CHI3L1 in intracellular signaling pathways has been reported. For example, CHI3L1 binding to CD44 activates protein kinase B (AKT) and extracellular signal-regulated kinase (ERK) signaling to promote cancer progression (Chen, Jiang et al. 2021). Thus, we tested whether mAb clones R4-4, R4-54, 293R3-2, and 293R3-4 could attenuate AKT and ERK phosphorylation in human pancreatic (PANC1), colorectal (HCT116), and lung (A549) cancer cell lines. PANC1 cells were treated with rCHI3L1 (100 ng/ml) only or rCHI3L1 with different dose of mAbs as indicated for 20 minutes.

binding specificity: recognition of CHI3L2 (CHI3L2): no other chitinase proteins
rCHI3L1 binding to cells [2]: significantly reduced
epitope cluster (hCHI3L1/flag-His; among four anti-CHI3L1 mAbs): unidirectional blocking results
competitive binding class, CHI3L1 293R3-2 (hCHI3L1/flag-His; paired with CHI3L1 293R3-2): *^b
Epitope Binning Heat Map value, CHI3L1 293R3-2 (hCHI3L1/flag-His; paired with CHI3L1 293R3-2, 100 nM each): 0.1002
competitive binding class, CHI3L1 293R3-4 (hCHI3L1/flag-His; paired with CHI3L1 293R3-4): *^b
Epitope Binning Heat Map value, CHI3L1 293R3-4 (hCHI3L1/flag-His; paired with CHI3L1 293R3-4, 100 nM each): 0.1425
competitive binding class, CHI3L1 R4-4 (hCHI3L1/flag-His; paired with CHI3L1 R4-4): *^c
Epitope Binning Heat Map value, CHI3L1 R4-4 (hCHI3L1/flag-His; paired with CHI3L1 R4-4, 100 nM each): 1.1166
competitive binding class, CHI3L1 R4-54 (hCHI3L1/flag-His; paired with CHI3L1 R4-54): *^a
Epitope Binning Heat Map value, CHI3L1 R4-54 (hCHI3L1/flag-His; paired with CHI3L1 R4-54, 100 nM each): 0.2160
B1: R4-54: fully human anti-CHI3L1 IgG1 mAb, Table 1 No. 34; heavy chain SEQ ID NO: 33, light chain SEQ ID NO: 34 (antibody, listed as Homo sapiens)
VH: QVQLVESGGGVVQPGRSLRLSCAASGFTFSSYGMHWVRQAPGKGLEWVAVISYDGSDKDYADSVKGRFTISRDNSKNTLFLQMNSLRAEDTAVYYCARDDYDSTYYFDNWGQGTTVTVSS
light: SYELTQPPSVSVSPGQTASITCSGDILADQYASWYQQKPGQSPVLVIYHDTKRPSGVPERFSGSTSGNTATLTISGTQAMDEAAYYCQAWDINTAWVFGGGTQLTVLGQPKAAPSVTLFPPSSEELQANKATLVCLISDFYPGAVTVAWKADSSPVKAGVETTTPSKQSNNKYAASSYLSLTPEQWKSHRSYSCQVTHEGSTVEKTVAPTECS
cell viability (CCK-8) (PANC1 and H460 cells): reduced the viability
cell migration ability induced by rCHI3L1 (wound closure area) [1]: significantly reduced cell migration ability
p-AKT and p-ERK levels induced by rCHI3L1 (PANC1 cells): inhibited p-AKT and p-ERK levels induced by rCHI3L1 in a dose dependent manner
